From the RNAGym collection of RNA variant scans (doi:10.7554/elife.80360)

B1: CPEB3 Ribozyme (parent)
chain: GGGGGCCACAGCAGAAGCGUUCACGUCGCGGCCCCUGUCAGAUUCUGGUGAAUCUGCGAAUUCUGCUGU

Variants of: B1
Experiment: self-cleavage, relative activity (ratio to wild type); higher = more cleavage; co-transcriptional

Variant | self-cleavage
A15U C32A | 0.285
A15U C32G | 0.247
A15U U61C | 0.686
A15U U61G | 0.854
A16C A51C | 0.217
A16C A51U | 0.239
A16C A51G | 0.33
A15U C24U | 0.28
A15U C24G | 0.214
A16C C63U | 0.19
A16C C63G | 0.12
A16C C63A | 0.173
A16C G25A | 0.139
A16C G25U | 0.103
A16C G17C | 0.0992
A16C G17A | 0.144
A16C G17U | 0.127
A15U G37A | 0.219
A15U G37C | 0.179
A15U G37U | 0.176
A15U C33A | 0.493
A15U C33U | 0.912
A16C A23G | 0.0786
A16C A23U | 0.549

Variant | self-cleavage
A16C A23C | 0.277
A15U G56C | 0.402
A15U G56A | 0.648
A16C G19U | 0.137
A16C G19A | 0.132
A16C G19C | 0.0843
A16C C27U | 0.15
A16C C27G | 0.122
A16C C27A | 0.114
A15U U64G | 0.549
A15U U64A | 0.683
A15U U64C | 0.654
A16C C54U | 0.313
A16C C54A | 0.256
A16C C54G | 0.152
A16C G47C | 0.368
A16C G47A | 0.303
A15U G30C | 0.287
A15U G30A | 0.361
A15U G30U | 0.184
A15U U62G | 0.991
A15U U62C | 0.946
A15U G17A | 0.159
A15U G17U | 0.221

Variant | self-cleavage
A15U G48A | 0.925
A16C A40C | 0.118
A16C A40U | 0.0836
A15U G19C | 0.132
A15U G19A | 0.13
A15U G19U | 0.127
A15U U21C | 0.592
A15U U21G | 0.157
A15U C45G | 0.823
A16C G28C | 0.133
A16C G28A | 0.103
A15U U20A | 0.106
A15U U20G | 0.132
A15U U20C | 0.211
A16C A60G | 0.418
A16C A60U | 0.103
A16C A42C | 0.245
A16C A42U | 0.102
A16C G48A | 0.328
A15U C29A | 0.245
A15U C29G | 0.169
A15U U67A | 0.889
A15U U67G | 0.87
A16C | 0.373

Variant | self-cleavage
A15U G50C | 0.795
A15U G50U | 0.858
A15U A60G | 0.416
A15U A60C | 0.298
A16C A59G | 0.287
A15U C66G | 0.516
A15U C66U | 0.643
A15U C66A | 0.324
A15U C54U | 0.845
A15U C54G | 0.412
A15U C54A | 0.468
A16C C32G | 0.136
A16C C32U | 0.299
A16C C22G | 0.0967
A16C C22A | 0.105
A16C A52C | 0.239
A16C A52U | 0.249
A15U C34A | 0.513
A15U C34G | 0.372
A15U C34U | 0.891
A15U U44A | 0.705
A15U G47A | 0.95
A15U G47C | 0.989
A15U G47U | 0.919

Variant | self-cleavage
A15U G58C | 0.821
A15U G58A | 0.754
A15U G58U | 0.963
A16C G37U | 0.0859
A16C G37A | 0.0923
A16C G37C | 0.176
A16C C57U | 0.107
A16C G41U | 0.142
A16C G41A | 0.129
A16C C29G | 0.165
A16C C29U | 0.192
A16C C29A | 0.186
A16C C39A | 0.108
A15U G25U | 0.148
A15U G68C | 0.929
A15U U38A | 0.548
A15U U38G | 0.178
A15U C27A | 0.0897
A15U C27G | 0.168
A15U C18U | 0.338
A15U C18A | 0.122
A15U C18G | 0.186
A16C G30C | 0.191
A15U U53C | 0.413

Variant | self-cleavage
A15U U53G | 0.566
A15U U53A | 0.468
A16C C34U | 0.353
A16C C34G | 0.168
A15U C39A | 0.309
A15U C39G | 0.622
A15U G41U | 0.378
A15U G41C | 0.257
A15U C35U | 0.776
A15U G31U | 0.205
A15U G31A | 0.248
A15U G31C | 0.183
A15U U46C | 0.848
A16C C66A | 0.18
A16C C66G | 0.198
A15U U26G | 0.424
A15U U26A | 0.34
A15U U26C | 0.634
A16C C33A | 0.213
A16C C33G | 0.0588
A15U U43G | 0.429
A15U U43C | 0.731
A15U U43A | 0.479
A16C C24G | 0.171

Variant | self-cleavage
A15U G28C | 0.206
A15U G28U | 0.167
A15U U49C | 0.817
A15U U49A | 0.931
A15U U49G | 0.884
A15U C22U | 0.107
A15U C22G | 0.126
A15U C22A | 0.225
A15U U69G | 0.998
A15U C57A | 0.298
A15U C57G | 0.259
A15U G65C | 0.433
A15U C63A | 0.832
A15U C63U | 0.794
A16C C35G | 0.118
A16C C35A | 0.071
A16C C35U | 0.17
A15U U36G | 0.181
A15U U36A | 0.194
A15U U55A | 0.412
A15U U55C | 0.418
A16C C18G | 0.114
A16C C18A | 0.129
